Targets include human RXFP2 (human) (UniProt Q8WXD0); human RXFP4 (human) (UniProt Q8TDU9); human RXFP3 (human) (UniProt Q9NSD7).
Holding throughout (assay): cell-based or functional assay

Chain of human RXFP4 (human) (Q8TDU9 whole entry): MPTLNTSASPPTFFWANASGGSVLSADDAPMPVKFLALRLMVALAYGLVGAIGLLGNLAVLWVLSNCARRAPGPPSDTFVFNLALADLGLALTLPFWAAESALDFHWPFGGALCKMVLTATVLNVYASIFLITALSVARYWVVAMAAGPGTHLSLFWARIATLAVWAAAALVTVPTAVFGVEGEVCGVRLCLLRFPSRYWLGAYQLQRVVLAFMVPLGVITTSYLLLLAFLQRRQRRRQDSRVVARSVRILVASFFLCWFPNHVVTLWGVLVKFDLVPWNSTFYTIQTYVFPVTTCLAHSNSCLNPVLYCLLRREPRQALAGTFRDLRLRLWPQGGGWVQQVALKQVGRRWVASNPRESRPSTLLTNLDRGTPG
Chain of human RXFP2 (human) (Q8WXD0 whole entry): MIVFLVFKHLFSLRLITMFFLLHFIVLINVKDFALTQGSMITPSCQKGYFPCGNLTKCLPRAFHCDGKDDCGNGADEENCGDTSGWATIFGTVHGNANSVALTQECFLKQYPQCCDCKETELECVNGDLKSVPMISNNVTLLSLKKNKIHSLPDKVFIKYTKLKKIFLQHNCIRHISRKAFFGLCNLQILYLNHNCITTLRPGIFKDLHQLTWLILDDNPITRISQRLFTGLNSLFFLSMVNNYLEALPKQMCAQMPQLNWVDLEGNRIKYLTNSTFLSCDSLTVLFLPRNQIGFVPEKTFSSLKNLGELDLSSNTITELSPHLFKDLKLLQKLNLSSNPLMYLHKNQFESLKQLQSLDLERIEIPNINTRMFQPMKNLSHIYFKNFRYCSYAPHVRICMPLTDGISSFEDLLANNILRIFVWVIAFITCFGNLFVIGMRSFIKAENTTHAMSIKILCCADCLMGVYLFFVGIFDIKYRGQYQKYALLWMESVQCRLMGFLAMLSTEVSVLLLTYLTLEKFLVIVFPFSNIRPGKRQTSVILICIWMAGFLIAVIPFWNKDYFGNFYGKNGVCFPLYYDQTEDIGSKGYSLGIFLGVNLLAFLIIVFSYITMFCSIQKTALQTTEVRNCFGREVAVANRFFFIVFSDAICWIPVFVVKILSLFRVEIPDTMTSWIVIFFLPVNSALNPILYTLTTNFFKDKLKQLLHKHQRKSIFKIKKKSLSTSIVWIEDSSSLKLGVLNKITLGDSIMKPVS
Chain of human RXFP3 (human) (Q9NSD7 whole entry): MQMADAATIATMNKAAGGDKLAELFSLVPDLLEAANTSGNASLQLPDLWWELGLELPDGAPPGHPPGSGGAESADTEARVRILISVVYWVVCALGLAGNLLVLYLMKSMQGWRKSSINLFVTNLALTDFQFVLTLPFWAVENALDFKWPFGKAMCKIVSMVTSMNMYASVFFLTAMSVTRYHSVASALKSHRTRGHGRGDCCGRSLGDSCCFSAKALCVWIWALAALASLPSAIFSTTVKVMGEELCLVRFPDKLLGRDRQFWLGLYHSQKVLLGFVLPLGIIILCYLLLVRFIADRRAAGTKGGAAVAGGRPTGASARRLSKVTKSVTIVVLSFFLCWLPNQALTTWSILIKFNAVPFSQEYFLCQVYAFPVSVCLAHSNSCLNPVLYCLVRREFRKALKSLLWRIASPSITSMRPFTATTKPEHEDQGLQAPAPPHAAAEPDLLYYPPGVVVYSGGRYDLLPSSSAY

In the case of “insulin like 3 protein (INSL3) (from UniProt P51460 21-131) (ligand)”, in the experiment with human RXFP2 (human), the cAMP Assay EC50 (nM), human RXFP2/CHO-K1 cells is 0.46 nM.

For “recombinant human relaxin 3 (H3-RLX) (from UniProt Q8WXF3 26-142) (ligand)”, in the experiment with human RXFP4 (human), the cAMP Assay EC50 (nM), inhibition of forskolin-induced cAMP, human RXFP4/CHO-K1 cells was 2.8 nM and the maximal inhibition of forskolin-induced cAMP, human RXFP4/CHO-K1 cells stood at 40%. Also, in the experiment with human RXFP3 (human), the cAMP Assay EC50 (nM), inhibition of forskolin-induced cAMP, human RXFP3/CHO-K1 cells is 0.6 nM.

For the origin of these results see patent publication US20240189392A1.
